Switch fluorescence ratio data for 66 sequences are collected here from the supplement of paper PMC10126150.

± gives the standard deviation of the averaged measurements.

For the data set, the system named is ATP. Briefly: switch fluorescence ratio, 500 uM ATP over buffer (Cy3 cluster intensity, sum of 5 cycles each) (fold (ratio)); higher = stronger signal-on switching upon ATP binding; sequences stand for … in TCGTCGGCAGCGTCAGATGTGTATAAGAGACAGTTTTTTTTTTTTTTTTTTTTTTTTT…TC. The note with it: aptamer strand: ATP DNA aptamer (quencher-CACCTGGGGGAGTATTGCGGAGGAAGG + anchor), 100 nM annealed; ATP concentration: 500 uM. The procedure, abridged: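 Five buffer/ATP imaging cycles were run on Cy3-labelled switching-strand clusters on a modified Illumina MiSeq flow-cell, with NaOH stripping and re-annealing between cycles. In each cycle, clusters annealed to 100 nM quencher-labelled ATP aptamer were imaged in selection buffer, then after 15 min with 500 uM ATP at 22 °C. Per cluster, the fluorescence ratio is summed target-cycle over summed buffer-cycle Cy3 intensity, averaged per switch-domain sequence. Only clusters within 100-1000 RFU were kept.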
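Note: ATP exposure 15 min at 22 °C before imaging.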

Turning to AATTATTTTG, the switch fluorescence ratio came to 1 ± 0.045.
The result for AAACTCTGCG reads 1.05 ± 0.026.
On to TGTGATGATG, for which the switch fluorescence ratio came out at 0.947 ± 0.036.
The result for GGAATGAAG reads 1.012 ± 0.01; that for AGCGCGCGGC, 0.998 ± 0.013.
Then TTCTTCTGGC, with 1.017 ± 0.0073.
On to CATTTTATAT, for which the switch fluorescence ratio came to 1.02 ± 0.012.
Consider AACGTGCGTG, for which the switch fluorescence ratio came out at 0.9973 ± 0.0028.
Then CTAACTGGTG, with 1.2 ± 0.055; and AGTCGCGCGC, with 0.989 ± 0.011; and GCTGTGTGGC, with 1.01 ± 0.047.
Then TTGGAAATGG, with 1.03 ± 0.045; and TGGTTACCTA, with 0.987 ± 0.039; and CGTGTAAGGG, with 0.974 ± 0.04.
The result for GTAGTTGGAA reads 0.9968 ± 0.0085; that for CGGGCAATTT, 1.38 ± 0.1.
As for AATTTCGGGG, the switch fluorescence ratio was 0.999 ± 0.017.
For GAGTTTAGAT, the switch fluorescence ratio was 0.994 ± 0.018.
In the case of ACAGGGTGCA, the switch fluorescence ratio stood at 1.03 ± 0.052.
Then CTGTGGCCGG, with 0.967 ± 0.017; and GCGTTTTTCG, with 0.977 ± 0.042; and ATCTTCAATT, with 1.005 ± 0.0055.
On to GAATTAATCG, for which the switch fluorescence ratio was determined as 0.988 ± 0.039.
Then TGCCTTAAGT, with 1.01 ± 0.063; and GCGCGTCGCA, with 1.02 ± 0.025.
Consider AGGAGGGCTC, for which the switch fluorescence ratio was determined as 1.01 ± 0.11.
Then TTTAAAGGGG, with 1.05 ± 0.14; and ATAAATACAG, with 0.9959 ± 0.0042.
With GAGATTGCGC, the switch fluorescence ratio was determined as 1.02 ± 0.046.
The result for CCGGATGTTG reads 0.987 ± 0.028.
The result for GGAGTAAGAT reads 1.3 ± 0.018.
The result for GGTGGGTGGA reads 1 ± 0.021; that for TTGTGGGAGG, 0.997 ± 0.033; that for ATTGCCGCTC, 1.04 ± 0.036.
For the sequence CTATCCTCTT, the switch fluorescence ratio came to 0.972 ± 0.01.
Consider CGCAGAAACG, for which the switch fluorescence ratio was 1 ± 0.036.
Then GCATCGTCGG, with 1.04 ± 0.058; and GAAAGGATTA, with 0.995 ± 0.063; and GTTGGGGTGC, with 1.01 ± 0.028.
As to GGGACGGGC, the switch fluorescence ratio is 0.933 ± 0.078.
The result for TTAATTCCAG reads 1.01 ± 0.029; that for CGTATTTGAG, 1 ± 0.037.
For the sequence AGGGGGTATC, the switch fluorescence ratio is 0.988 ± 0.023.
As to TTCTTCTGGG, the switch fluorescence ratio was determined as 0.997 ± 0.017.
On to TCACAGTAAT, for which the switch fluorescence ratio worked out at 1.13 ± 0.063.
Regarding GCGCCTTGTG, the switch fluorescence ratio turned out to be 0.988 ± 0.018.
For the sequence TTTTAATTGG, the switch fluorescence ratio turned out to be 1.01 ± 0.066.
Take GGTGGAACAG: the switch fluorescence ratio was 1.02 ± 0.028.
Regarding ACTAGGAATC, the switch fluorescence ratio turned out to be 1.04 ± 0.019.
As for GATGGGGTTT, the switch fluorescence ratio is 1 ± 0.014.
Take ATGGACTATG: the switch fluorescence ratio turned out to be 1.02 ± 0.043.
Consider GGGGGATGGC, for which the switch fluorescence ratio turned out to be 0.975 ± 0.064.
ACGCACGATT: the switch fluorescence ratio was determined as 1.37 ± 0.1.
The result for TGGTAACGGT reads 1.09 ± 0.12; that for TAAGGACGAG, 1.02 ± 0.013.
The result for GGAGTCTAGC reads 0.9825 ± 0.0036; that for GCAGGGGAGG, 1 ± 0.036.
The result for CTAGGGGGGC reads 1 ± 0.093.
Regarding GGAACTGGAG, the switch fluorescence ratio was determined as 1.07 ± 0.031.
The result for GTTGATGCCG reads 1.001 ± 0.0012.
Then CGATTTAAGG, with 0.9947 ± 0.0063; and TGAAAAATTG, with 0.985 ± 0.053.
Then AATGTTGTCC, with 1.007 ± 0.0094; and GACAGAGGTT, with 1 ± 0.021; and ATACTGTTAC, with 1.359 ± 0.0057.
Take TTGTGAAAAA: the switch fluorescence ratio stood at 0.972 ± 0.026.
